Laboratory results from the Immune Epitope Database (IEDB).
pIC50, pKd: −log10 of the molar value. Blank lines part the entries; values can stand above or below the sequence they belong to.

Columns and labels:
HLA-A*01:01 [1] = test: IEDB peptide-MHC binding, purified MHC/direct/fluorescence; filed as Kd, often an IC50 or EC50 that approximates it; ≥ and ≤ were set here for values at or beyond the usual limits of such assays
HLA-A*02:01 = test: as above
HLA-A*03:01 = test: as above
HLA-A*11:01 [2] = test: as above
HLA-A*26:03 = test: as above
HLA-A*31:01 = test: as above
HLA-A*68:02 = test: as above
HLA-A*69:01 = test: as above
HLA-B*08:03 = test: as above
HLA-B*15:01 = test: as above
HLA-B*15:17 [3] = test: as above
HLA-B*18:01 = test: as above
HLA-B*27:05 [4] = test: as above
HLA-B*40:01 = test: as above
HLA-B*46:01 = test: as above
HLA-B*48:01 = test: as above
HLA-B*57:01 = test: as above
HLA-B*58:01 = test: as above
HLA-B*07:02 [5] = test: IEDB peptide-MHC binding, purified MHC/competitive/fluorescence; filed as Kd, often an IC50 or EC50 that approximates it; ≥ and ≤ were set here for values at or beyond the usual limits of such assays; conditions: source organism: Giardia lamblia ATCC 50803
HLA-B*08:01 [6] = test: as above; conditions: source organism: Giardia lamblia ATCC 50803
HLA-B*27:05 [7] = test: IEDB peptide-MHC binding, purified MHC/competitive/fluorescence; ≥ and ≤ were set here for values at or beyond the usual limits of such assays
HLA-A*01:01 [8] = test: as above
HLA-A*26:01 = test: IEDB peptide-MHC binding, purified MHC/direct/fluorescence; filed as Kd, often an IC50 or EC50 that approximates it; ≥ and ≤ were set here for values at or beyond the usual limits of such assays
HLA-B*08:02 = test: as above
HLA-B*51:01 = test: as above; conditions: source organism: Mycobacterium tuberculosis
HLA-B*15:09 = test: IEDB peptide-MHC binding, purified MHC/competitive/fluorescence; filed as Kd, often an IC50 or EC50 that approximates it; ≥ and ≤ were set here for values at or beyond the usual limits of such assays
HLA-B*39:01 [9] = test: as above
HLA-A*26:02 = test: IEDB peptide-MHC binding, purified MHC/direct/fluorescence; filed as Kd, often an IC50 or EC50 that approximates it; ≥ and ≤ were set here for values at or beyond the usual limits of such assays; conditions: source organism: Variola virus
HLA-B*07:02 [10] = test: as above
HLA-B*15:02 = test: as above
HLA-B*35:01 [11] = test: IEDB peptide-MHC binding, purified MHC/competitive/fluorescence; filed as Kd, often an IC50 or EC50 that approximates it; ≥ and ≤ were set here for values at or beyond the usual limits of such assays; conditions: source organism: Horsepox virus
HLA-B*44:02 = test: IEDB peptide-MHC binding, purified MHC/direct/fluorescence; filed as Kd, often an IC50 or EC50 that approximates it; ≥ and ≤ were set here for values at or beyond the usual limits of such assays; conditions: source organism: Camelpox virus M-96
HLA-B*08:01 [12] = test: as above; conditions: source organism: Giardia lamblia ATCC 50803
HLA-A*02:03 = test: IEDB peptide-MHC binding, purified MHC/competitive/fluorescence; filed as Kd, often an IC50 or EC50 that approximates it; ≥ and ≤ were set here for values at or beyond the usual limits of such assays; conditions: source organism: Giardia lamblia ATCC 50803
HLA-B*15:17 [13] = test: as above; conditions: source organism: Giardia lamblia ATCC 50803
HLA-B*35:01 [14] = test: IEDB peptide-MHC binding, purified MHC/direct/fluorescence; filed as Kd, often an IC50 or EC50 that approximates it; ≥ and ≤ were set here for values at or beyond the usual limits of such assays; conditions: source organism: Bacillus anthracis str. A0389
HLA-B*39:01 [15] = test: as above; conditions: source organism: Bacillus anthracis str. A0389
HLA-A*11:01 [16] = test: IEDB peptide-MHC binding, purified MHC/competitive/fluorescence; filed as Kd, often an IC50 or EC50 that approximates it; ≥ and ≤ were set here for values at or beyond the usual limits of such assays; conditions: source organism: Bacillus anthracis str. A0389
HLA-A*30:01 = test: as above; conditions: source organism: Bacillus anthracis str. A0389
[17] = source organism: Giardia lamblia ATCC 50803
[18] = source organism: Mycobacterium tuberculosis
[19] = source organism: Mycobacterium tuberculosis F11
[20] = source organism: Corynebacterium efficiens YS-314
[21] = source organism: Camelpox virus M-96
[22] = source organism: Mycobacterium tuberculosis str. Haarlem
[23] = source organism: Vaccinia virus Copenhagen
[24] = source organism: Bacillus anthracis
[25] = source organism: Bacillus anthracis str. A0389

Sequence: EIRHRSGIQ
- pKd (HLA-A*01:01 [1]; [17]): ≤ 4.70
- pKd (HLA-A*02:01; [17]): ≤ 4.70
- pKd (HLA-A*03:01; [17]): 5.70
- pKd (HLA-A*11:01 [2]; [17]): 5.19
- pKd (HLA-A*26:03; [17]): ≤ 4.70
- pKd (HLA-A*31:01; [17]): ≤ 4.70
- pKd (HLA-A*68:02; [17]): ≤ 4.70
- pKd (HLA-A*69:01; [17]): ≤ 4.70
- pKd (HLA-B*08:03; [17]): ≤ 4.70
- pKd (HLA-B*15:01; [17]): ≤ 4.70
- pKd (HLA-B*15:17 [3]; [17]): ≤ 4.70
- pKd (HLA-B*18:01; [17]): ≤ 4.70
- pKd (HLA-B*27:05 [4]; [17]): ≤ 4.70
- pKd (HLA-B*40:01; [17]): ≤ 4.70
- pKd (HLA-B*46:01; [17]): ≤ 4.70
- pKd (HLA-B*48:01; [17]): ≤ 4.70
- pKd (HLA-B*57:01; [17]): ≤ 4.70
- pKd (HLA-B*58:01; [17]): ≤ 4.70
- pKd (HLA-B*07:02 [5]): 6.39
- pKd (HLA-B*08:01 [6]): 5.05

- pIC50 (HLA-B*27:05 [7]; source organism: Homo sapiens): 6.84
Sequence: RLFPGLAIK

Sequence: QSEHSFEEM
- pIC50 (HLA-A*01:01 [8]; source organism: Zaire ebolavirus): 4.40

Sequence: MPRLSRNAA
- pKd (HLA-A*01:01 [1]; [18]): ≤ 4.70
- pKd (HLA-A*02:01; [18]): ≤ 4.70
- pKd (HLA-A*03:01; [18]): ≤ 4.70
- pKd (HLA-A*11:01 [2]; [18]): ≤ 4.70
- pKd (HLA-A*26:01; [19]): ≤ 4.70
- pKd (HLA-A*31:01; [18]): ≤ 4.70
- pKd (HLA-A*69:01; [18]): ≤ 4.70
- pKd (HLA-B*08:02; [19]): ≤ 4.70
- pKd (HLA-B*15:01; [18]): ≤ 4.70
- pKd (HLA-B*15:17 [3]; [18]): ≤ 4.70
- pKd (HLA-B*18:01; [18]): 5.08
- pKd (HLA-B*27:05 [4]; [18]): ≤ 4.70
- pKd (HLA-B*40:01; [18]): ≤ 4.70
- pKd (HLA-B*46:01; [18]): ≤ 4.70
- pKd (HLA-B*48:01; [18]): ≤ 4.70
- pKd (HLA-B*51:01): 6.18
- pKd (HLA-B*57:01; [18]): ≤ 4.70
- pKd (HLA-B*58:01; [18]): ≤ 4.70
- pKd (HLA-B*15:09; [20]): ≤ 4.70
- pKd (HLA-B*39:01 [9]; [20]): 6.60

Sequence: GRATICGKY
- pIC50 (HLA-B*27:05 [7]; source organism: hepatitis C virus genotype 1a): 6.91

Sequence: LLRDKDGVY
- pKd (HLA-A*01:01 [1]; [21]): ≤ 4.70
- pKd (HLA-A*02:01; [21]): ≤ 4.70
- pKd (HLA-A*11:01 [2]; [21]): ≤ 4.70
- pKd (HLA-A*26:01; source organism: Variola virus): ≤ 4.70
- pKd (HLA-A*26:02): ≤ 4.70
- pKd (HLA-A*31:01; [21]): ≤ 4.70
- pKd (HLA-A*68:02; [21]): ≤ 4.70
- pKd (HLA-A*69:01; [21]): ≤ 4.70
- pKd (HLA-B*07:02 [10]; [21]): ≤ 4.70
- pKd (HLA-B*08:03; source organism: Variola virus): ≤ 4.70
- pKd (HLA-B*15:01; [21]): 7.16
- pKd (HLA-B*15:02; source organism: Variola virus): 7.37
- pKd (HLA-B*15:17 [3]; [21]): 6.41
- pKd (HLA-B*27:05 [4]; [21]): ≤ 4.70
- pKd (HLA-B*46:01; [21]): ≤ 4.70
- pKd (HLA-B*48:01; [21]): ≤ 4.70
- pKd (HLA-B*57:01; [21]): ≤ 4.70
- pKd (HLA-B*58:01; [21]): ≤ 4.70
- pKd (HLA-B*35:01 [11]): 7.17

Sequence: SMRFESSPH
- pKd (HLA-B*07:02 [10]; [22]): 5.27
- pKd (HLA-B*15:01; [18]): 8.03
- pKd (HLA-B*15:02; [22]): 7.31
- pKd (HLA-B*46:01; [18]): 4.81

Sequence: WENGFKVVL
- pKd (HLA-A*01:01 [1]; [21]): ≤ 4.70
- pKd (HLA-A*02:01; [21]): ≤ 4.70
- pKd (HLA-A*11:01 [2]; [21]): ≤ 4.70
- pKd (HLA-A*31:01; [21]): ≤ 4.70
- pKd (HLA-A*68:02; [21]): ≤ 4.70
- pKd (HLA-A*69:01; [21]): ≤ 4.70
- pKd (HLA-B*07:02 [10]; [21]): ≤ 4.70
- pKd (HLA-B*15:17 [3]; [21]): ≤ 4.70
- pKd (HLA-B*18:01; [21]): ≥ 9.00
- pKd (HLA-B*27:05 [4]; [21]): ≤ 4.70
- pKd (HLA-B*40:01; [21]): 8.40
- pKd (HLA-B*44:02): ≤ 4.70
- pKd (HLA-B*48:01; [21]): 7.00
- pKd (HLA-B*57:01; [21]): ≤ 4.70
- pKd (HLA-B*58:01; [21]): ≤ 4.70
- pKd (HLA-B*15:09; [23]): 5.51
- pKd (HLA-B*39:01 [9]; [23]): 6.31

Sequence: LTDSLSSQM
- pIC50 (HLA-A*01:01 [8]; [23]): 5.60

Sequence: IARLVYKAR
- pKd (HLA-A*01:01 [1]; [17]): ≤ 4.70
- pKd (HLA-A*02:01; [17]): ≤ 4.70
- pKd (HLA-A*03:01; [17]): ≤ 4.70
- pKd (HLA-A*11:01 [2]; [17]): ≤ 4.70
- pKd (HLA-A*26:01; [17]): ≤ 4.70
- pKd (HLA-A*31:01; [17]): 7.45
- pKd (HLA-A*68:02; [17]): ≤ 4.70
- pKd (HLA-A*69:01; [17]): ≤ 4.70
- pKd (HLA-B*07:02 [10]; [17]): ≤ 4.70
- pKd (HLA-B*08:01 [12]): ≤ 4.70
- pKd (HLA-B*08:02; [17]): ≤ 4.70
- pKd (HLA-B*08:03; [17]): ≤ 4.70
- pKd (HLA-B*15:01; [17]): ≤ 4.70
- pKd (HLA-B*27:05 [4]; [17]): ≤ 4.70
- pKd (HLA-B*40:01; [17]): ≤ 4.70
- pKd (HLA-B*46:01; [17]): ≤ 4.70
- pKd (HLA-B*48:01; [17]): ≤ 4.70
- pKd (HLA-B*57:01; [17]): ≤ 4.70
- pKd (HLA-B*58:01; [17]): ≤ 4.70
- pKd (HLA-A*02:03): ≤ 4.70
- pKd (HLA-B*15:17 [13]): ≤ 4.70

Sequence: KLYVNGKAY
- pKd (HLA-A*01:01 [1]; [24]): ≤ 4.70
- pKd (HLA-A*02:01; [24]): ≤ 4.70
- pKd (HLA-A*03:01; [24]): 7.49
- pKd (HLA-A*26:01; [25]): ≤ 4.70
- pKd (HLA-A*26:03; [25]): ≤ 4.70
- pKd (HLA-A*31:01; [24]): ≤ 4.70
- pKd (HLA-A*68:02; [24]): ≤ 4.70
- pKd (HLA-A*69:01; [24]): ≤ 4.70
- pKd (HLA-B*07:02 [10]; [24]): ≤ 4.70
- pKd (HLA-B*08:02; [25]): ≤ 4.70
- pKd (HLA-B*15:01; [24]): 6.53
- pKd (HLA-B*15:02; [25]): 6.93
- pKd (HLA-B*15:17 [3]; [24]): 8.62
- pKd (HLA-B*27:05 [4]; [24]): ≤ 4.70
- pKd (HLA-B*35:01 [14]): 5.79
- pKd (HLA-B*39:01 [15]): ≤ 4.70
- pKd (HLA-B*46:01; [24]): 5.22
- pKd (HLA-B*48:01; [24]): ≤ 4.70
- pKd (HLA-B*57:01; [24]): 6.29
- pKd (HLA-B*58:01; [24]): ≤ 4.70
- pKd (HLA-A*11:01 [16]): ≤ 4.70
- pKd (HLA-A*30:01): 6.40
